The target of assay [1] is T1, BSA-coupled (GP)15 DPR protein peptide (bovine, conjugated via a bifunctional linker (SMCC) to bovine serum albumin).
T1 construct: also called BSA-(GP)15
The assay can be described thus: Western blot, BSA-coupled peptide. On the procedure: (§1) Resolved proteins were then electroblotted (Novex® Semi-Dry Blotter, 1 h, 25V) on methanol-activated PVDF membranes (Immobilon®-P Transfer Membrane, Merck & Cie, Schaffhausen, Switzerland) by the use of Novex® NuPAGE® transfer buffer 2× (Life Technologies Europe B.V., Zug, Switzerland). Non-specific binding sites were blocked overnight at 4° C. (or alternatively for 1 h at room temperature) with PBS/0.1% Tween®-20 containing 2% BSA (Sigma-Aldrich, Buchs, Switzerland) (PBST). […] Membranes were washed three times in PBST for 15 min at RT and then incubated with a donkey anti-human IgG Fcγ-specific antibody conjugated with HRP (1:20000 or 1:10000 dilution, Jackson ImmunoResearch Laboratories, Inc., West Grove, USA) for 1 h at room temperature. Antibody binding was determined by membrane development using ECL and ImageQuant 350 detection (GE Healthcare, Otelfingen, Switzerland).
(§2) The binding specificity of the human-derived antibodies to BSA-coupled C9orf72 dipeptide repeat proteins (GA)₁₅, (GP)₁₅, (GR)₁₅, (PA)₁₅ and (PR)₁₅ was determined by Western blot analysis.
In general terms: In western blotting, separated proteins are transferred to a membrane and probed.

Assay [2] deals with T2, BSA-coupled (PA)15 DPR protein peptide (bovine, UniProt P02769 25-607, conjugated via a bifunctional linker (SMCC) to bovine serum albumin).
T2 construct: also called BSA-(PA)15
The assay can be described thus: Western blot, BSA-coupled peptide. The procedure: as §1, §2

The target in a further assay is T3, GA3: H-(GA)3HHHHHH-NH2.
T3 peptide: H-GAGAGAHHHHHH-NH2
As to the kind of experiment: indirect ELISA, His-tagged peptide coated at 50 ug/ml, antibody titrated [also D00026 FIG. 7K]. The procedure:
(§3) 96-well microplates (Corning Incorporated, Corning, USA) were coated with dipeptide repeat protein peptides at a concentration of 50 μg/ml in coating buffer (15 mM Na₂CO₃, 35 mM NaHCO₃, pH 9.42). Non-specific binding sites were blocked for 1 h at room temperature with PBS/0.1% Tween®-20 containing 2% BSA (Sigma-Aldrich, Buchs, Switzerland). Primary antibodies were diluted to the indicated concentrations and incubated 1 h at room temperature, followed by incubation with a donkey anti-human IgG Fcγ-specific antibody conjugated with HRP (Jackson ImmunoResearch Laboratories, Inc., West Grove, USA). Binding was determined by measurement of HRP activity in a standard colorimetric assay. EC₅₀ values were estimated by non-linear regression using GraphPad Prism software (San Diego, USA).
(§4) High affinity binding was detected for poly-GA DPRs harboring 10 or 20 (GA)-repeats, reflected in an EC₅₀ in the subnanomolar or low nanomolar range (FIGS. 7A, 7C-7I).
Background: ELISA stands for enzyme-linked immunosorbent assay.

For the next assay, the target named is T4, GA5: H-(GA)5HHHHHH-NH2.
T4 peptide: H-GAGAGAGAGAHHHHHH-NH2
Described as above. On the procedure: as §3, §4

In the next assay the target is T5, GA2: H-(GA)2HHHHHH-NH2.
T5 peptide: H-GAGAHHHHHH-NH2
The assay is described as above. On the procedure: as §3, §4

In the next assay the target is T6, GA4: H-(GA)4HHHHHH-NH2.
T6 peptide: H-GAGAGAGAHHHHHH-NH2
Described as above. On the procedure: as §3, §4

The target in another assay is T7, GP20: H-(GP)20HHHHHH-NH2 (C-terminal amide).
T7 peptide: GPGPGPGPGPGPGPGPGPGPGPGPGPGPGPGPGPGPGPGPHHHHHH
As to the kind of experiment: sandwich ELISA, peptide captured by anti-His antibody. From the text: In brief, His-tagged dipeptide repeat protein peptides were synthesized and purified by Schafer-N(Copenhagen, Denmark): GA₂₀: H-(GA)₂₀HHHHHH-NH₂; GA₁₀: H-(GA)₁₀HHHHHH-NH₂; GA₆: H-(GA)₆HHHHHH-NH₂; GA₅: H-(GA)₅HHHHHH-NH₂; GA₄: H-(GA)₄HHHHHH-NH₂; GA₃: H-(GA)₃HHHHHH-NH₂; GA₂: H-(GA)₂HHHHHH-NH₂; GP₂₀: H-(GP)₂₀HHHHHH-NH₂; GP₁₀: H-(GP)₁₀HHHHHH-NH₂; GP₆: H-(GP)₆HHHHHH-NH₂; GP₅: H-(GP)₅HHHHHH-NH₂; GP₄: H-(GP)₄HHHHHH-NH₂; GP₃: H-(GP)₃HHHHHH-NH₂; GP₂: H-(GP)₂HHHHHH-NH₂. 96-well microplates (Corning Incorporated, Corning, USA) were coated with monoclonal mouse anti-His tag antibody (Takara Bio Europe/Clontech, Saint-Germain-en-Laye, France) at a concentration of 10 μg/ml in coating buffer (15 mM Na₂CO₃, 35 mM NaHCO₃, pH 9.42) overnight at 4° C. Non-specific binding sites were blocked for 1 h at room temperature with PBS/0.1% Tween®-20 containing 2% BSA (Sigma-Aldrich, Buchs, Switzerland). After a washing step, His-tagged C9orf72 DPR protein peptides at equal concentration of either 1 μM or 5 μM in PBS (pH 7.4) were added for target-trapping by the anti-His tag antibody for 1 h at room temperature. […] Antibody binding to DPR protein peptides was detected by a donkey anti-human IgG Fcγ-specific antibody conjugated with HRP at 1:5000 dilution (Jackson ImmunoResearch Laboratories, Inc., West Grove, USA) for 1 h at RT. Binding was determined by measurement of HRP activity in a standard colorimetric assay. EC₅₀ values were estimated by non-linear regression using GraphPad Prism software (San Diego, USA).

From patent US20200010567A1 (NEURIMMUNE, published 2020) come the findings set out here.

T2 sequence (peptide, as listed by the source limits assumed, chain 1 of 2): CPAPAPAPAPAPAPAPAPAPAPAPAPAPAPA
T2 sequence (P02769 25-607 limits assumed, chain 2 of 2): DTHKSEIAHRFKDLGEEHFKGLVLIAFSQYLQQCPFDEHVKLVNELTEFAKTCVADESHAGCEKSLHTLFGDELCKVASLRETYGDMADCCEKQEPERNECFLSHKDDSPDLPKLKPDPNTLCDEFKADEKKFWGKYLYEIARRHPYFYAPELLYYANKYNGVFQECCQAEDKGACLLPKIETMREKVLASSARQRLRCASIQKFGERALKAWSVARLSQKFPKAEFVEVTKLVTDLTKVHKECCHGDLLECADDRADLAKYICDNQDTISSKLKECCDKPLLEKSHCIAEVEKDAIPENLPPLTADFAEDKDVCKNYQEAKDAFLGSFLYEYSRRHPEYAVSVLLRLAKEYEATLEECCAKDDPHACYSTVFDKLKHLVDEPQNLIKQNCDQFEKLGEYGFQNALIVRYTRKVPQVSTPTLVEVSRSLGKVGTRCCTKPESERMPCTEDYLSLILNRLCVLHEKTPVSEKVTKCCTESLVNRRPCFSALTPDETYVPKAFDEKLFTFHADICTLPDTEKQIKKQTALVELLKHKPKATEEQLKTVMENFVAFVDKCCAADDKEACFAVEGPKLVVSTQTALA
T1 sequence (peptide, as listed by the source limits assumed, chain 1 of 2): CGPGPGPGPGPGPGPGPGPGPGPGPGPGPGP
T1 sequence (P02769 25-607 limits assumed, chain 2 of 2): as the sequence (P02769 25-607 limits assumed, chain 2 of 2) above

B1: NI-308.6B11 (antibody, V domains shown)
VH: EVQLVQSGAEVKRPGASVKVSCKVSGYTLTELSMHWVRQAPGKGLEWMGGFDPEDGETVYAQKFQGRVTMTEDTSTDTAYMELSSLRSEDTALYHCATYGSSWHWNEGNEGSYYFDYWGQGTLVTVSS
VL: CDIQMTQSPSSLSASVGDRVTITCQASQDISIYLNWYQQKPGKAPKLLIYDASNLETGVPSRFSGSGSGTDFTFTISGLQPEDVARYYCQQYDDLPITFGQGTRLEIK
notes: Recombinant complete human IgG1, kappa
On to B1, for which the binding result in assay [1] and in assay [2] was “no binding (tested: 10 nM or 100 nM)” in each case.

B2: NI-308.5G2 (antibody, V domains shown)
VH: EVQLVQSGADLRNPGASVTVSCTASGYHFADNAINWLRQAPGQRLEWMGWINIYSGNTKYSQNFQGRVTFTRNTSASTAFMHLRSLRSEDTAVYFCARDPDSSGYYLPYFDYWGQGTLVTVSS
VL: DIQLTQSPDSLTLSLGERATINCKSSQSVFYNSNNKNYLAWYQQKPGQPPKLLMYWASTRESGVTDRFSGSGSGTDFTLTITNLQAEDVAVYYCQQFYSSPLTFGGGTKVEIK
notes: as for B1
For B2, the binding result with GA3: H-(GA)3HHHHHH-NH2, in the assay with GA5: H-(GA)5HHHHHH-NH2, with GA2: H-(GA)2HHHHHH-NH2 and with GA4: H-(GA)4HHHHHH-NH2 was “no binding (tested: about 4x10^5 pM (last point))” throughout. Besides, the EC50 – broadly, the concentration giving half of the maximal effect – with GP20: H-(GP)20HHHHHH-NH2 is 38.2 nM.
